According to publication PMC12392869 (2025):

Biological target: biotinylated NeoNectin candidate 1 (NN-C1) (biotin (N-terminal biotin; enzymatic biotinylation of the Avi-tag))
Test: BLI

Kd: 1000 nM
B1: integrin αvβ8 ectodomain (complex)
chain 1: FNLDVDSPAEYSGPEGSYFGFAVDFFVPSASSRMFLLVGAPKANTTQPGIVEGGQVLKCDWSSTRRCQPIEFDATGNRDYAKDDPLEFKSHQWFGASVRSKQDKILACAPLYHWRTEMKQEREPVGTCFLQDGTKTVEYAPCRSQDIDADGQGFCQGGFSIDFTKADRVLLGGPGSFYWQGQLISDQVAEIVSKYDPNVYSIKYNNQLATRTAQAIFDDSYLGYSVAVGDFNGDGIDDFVSGVPRAARTLGMVYIYDGKNMSSLYNFTGEQMAAYFGFSVAATDINGDDYADVFIGAPLFMDRGSDGKLQEVGQVSVSLQRASGDFQTTKLNGFEVFARFGSAIAPLGDLDQDGFNDIAIAAPYGGEDKKGIVYIFNGRSTGLNAVPSQILEGQWAARSMPPSFGYSMKGATDIDKNGYPDLIVGAFGVDRAILYRARPVITVNAGLEVYPSILNQDNKTCSLPGTALKVSCFNVRFCLKADGKGVLPRKLNFQVELLLDKLKQKGAIRRALFLYSRSPSHSKNMTISRGGLMQCEELIAYLRDESEFRDKLTPITIFMEYRLDYRTAADTTGLQPILNQFTPANISRQAHILLDCGEDNVCKPKLEVSVDSDQKKIYIGDDNPLTLIVKAQNQGEGAYEAELIVSIPLQADFIGVVRNNEALARLSCAFKTENQTRQVVCDLGNPMKAGTQLLAGLRFSVHQQSEMDTSVKFDLQIQSSNLFDKVSPVVSHKVDLAVLAAVEIRGVSSPDHVFLPIPNWEHKENPETEEDVGPVVQHIYELRNNGPSSFSKAMLHLQWPYKYNNNTLLYILHYDIDGPMNCTSDMEINPLRIKISSLQTTEKNDTVAGQGERDHLITKRDLALSEGDIHTLGCGVAQCLKIVCQVGRLDRGKSAILYVKSLLWTETFMNKENQNHSYSLKSSASFNVIEFPYKNLPIEDITNSTLVTTNVTWGIQPAPMPV
chain 2: EDNRCASSNAASCARCLALGPECGWCVQEDFISGGSRSERCDIVSNLISKGCSVDSIEYPSVHVIIPTENEINTQVTPGEVSIQLRPGAEANFMLKVHPLKKYPVDLYYLVDVSASMHNNIEKLNSVGNDLSRKMAFFSRDFRLGFGSYVDKTVSPYISIHPERIHNQCSDYNLDCMPPHGYIHVLSLTENITEFEKAVHRQKISGNIDTPEGGFDAMLQAAVCESHIGWRKEAKRLLLVMTDQTSHLALDSKLAGIVVPNDGNCHLKNNVYVKSTTMEHPSLGQLSEKLIDNNINVIFAVQGKQFHWYKDLLPLLPGTIAGEIESKAANLNNLVVEAYQKLISEVKVQVENQVQGIYFNITAICPDGSRKPGMEGCRNVTSNDEVLFNVTVTMKKCDVTGGKNYAIIKPIGFNETAKIHIHRNCSCQCEDNRGPKGKCVDETFLDSKCFQCDENKCHFDEDQFSSESCKSHKDQPVCSGRGVCVCGKCSCHKIKLGKVYGKYCEKDDFSCPYHHGNLCAGHGECEAGRCQCFSGWEGDRCQCPSAAAQHCVNSKGQVCSGRGTCVCGRCECTDPRSIGRFCEHCPTCYTACKENWNCMQCLHPHNLSQAILDQCKTSCALMEQQHYVDQTSECFSSPSYLR
